Laboratory results: article PMC4894720

B1: LDLR-PPRE(WT) biotin probe (dsDNA)
DNA 1: TCTCTGTGGCTTAGGGGTTCAAGTTCAACTGTGAAAGCCC
DNA 2: GGGCTTTCACAGTTGAACTTGAACCCCTAAGCCACAGAGA
B2: LDLR-PPRE(WT) unlabeled competitor (dsDNA)
DNA 1: TCTCTGTGGCTTAGGGGTTCAAGTTCAACTGTGAAAGCCC
DNA 2: GGGCTTTCACAGTTGAACTTGAACCCCTAAGCCACAGAGA

How the values were obtained:
PPARδ;RXRα [1] = target: T1, PPARδ;RXRα (Homo sapiens;Homo sapiens?, UniProt Q03181;P19793 1-441;1-462, |); assay: EMSA
PPARδ;RXRα [2] = target: T1, PPARδ;RXRα; assay: competition

T1 sequence (Q03181 whole entry, stated change not applied, chain 1 of 2): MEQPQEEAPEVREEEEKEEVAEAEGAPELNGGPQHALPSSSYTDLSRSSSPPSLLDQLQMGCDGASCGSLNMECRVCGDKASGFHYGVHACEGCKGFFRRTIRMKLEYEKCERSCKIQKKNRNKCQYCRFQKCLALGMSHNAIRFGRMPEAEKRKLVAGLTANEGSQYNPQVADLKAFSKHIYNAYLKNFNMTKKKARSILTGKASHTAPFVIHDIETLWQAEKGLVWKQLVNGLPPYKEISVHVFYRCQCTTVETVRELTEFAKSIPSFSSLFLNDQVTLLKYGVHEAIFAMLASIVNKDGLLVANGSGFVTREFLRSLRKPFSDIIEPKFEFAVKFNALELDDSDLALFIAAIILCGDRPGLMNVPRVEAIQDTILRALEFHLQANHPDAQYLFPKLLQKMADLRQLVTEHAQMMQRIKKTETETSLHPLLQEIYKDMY
T1 sequence (P19793 whole entry, stated change not applied, chain 2 of 2): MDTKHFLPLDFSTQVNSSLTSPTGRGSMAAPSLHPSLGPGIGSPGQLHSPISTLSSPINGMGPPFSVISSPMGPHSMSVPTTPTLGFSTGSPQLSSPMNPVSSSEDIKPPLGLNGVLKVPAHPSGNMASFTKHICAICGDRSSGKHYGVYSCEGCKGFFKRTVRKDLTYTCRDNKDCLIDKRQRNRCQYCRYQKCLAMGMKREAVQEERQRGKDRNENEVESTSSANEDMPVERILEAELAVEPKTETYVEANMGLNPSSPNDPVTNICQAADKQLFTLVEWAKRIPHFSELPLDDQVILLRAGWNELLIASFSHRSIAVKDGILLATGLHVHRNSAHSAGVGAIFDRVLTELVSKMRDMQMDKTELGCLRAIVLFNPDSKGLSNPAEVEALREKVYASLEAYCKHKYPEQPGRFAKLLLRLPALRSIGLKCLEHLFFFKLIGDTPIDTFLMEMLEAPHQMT

Binder | binding result (PPARδ;RXRα [1]) | binding result (PPARδ;RXRα [2])
B1 | binds | 
B2 |  | binds
